Test results: patent US20250320297A1 (SHANGHAI HENLIUS BIOTECH, published 2025)
Numbering of substitutions follows the chain as printed. Names may count otherwise.

B1: 10A4 VHH-Fc (chimeric bivalent antibody) (antibody, human IgG1, V domains shown)
VH: QVKLEESGGGLVMAGGSLRLSCAASGGPFMSYAMGWFRQAPGKEREFVAAIRWNGISTFYADSVKGRFTVSRDNGKNMAFLQMNSLKPEDTAVYYCAAAQTIVTVPENYEYHYWGQGTQVTVSS
B2: 2F9 VHH-Fc (antibody, human IgG1, V domains shown)
VH: QVQLVESGGGVVQPGRSLRLSCAASGGPFMSYAMGWFRQAPGKEREFVAAIRWSGISTFYADSVKGRFTISRDNSKNTLYLQMNSLRAEDTAVYYCAAAQTIVTVPENYEFDYWGQGTQVTVSS
B3: 5D8 VHH-Fc (antibody, human IgG1, V domains shown)
VH: B2 VH with I56Q, E107S
B4: Humanized 10A4 GLEF VHH-Fc (antibody, human IgG1, V domains shown)
VH: B2 VH with Q1E, V11L, R16G, F37V, E44G, R45L, S54N, F111Y, D112H
B5: 1F6 VHH-Fc (antibody, human IgG1, V domains shown)
VH: B2 VH with I56K, N108S
B6: 1H2 VHH-Fc (antibody, human IgG1, V domains shown)
VH: B2 VH with I56L, Q100P
B7: 1E4 VHH-Fc (antibody, human IgG1, V domains shown)
VH: B2 VH with S54N
B8: 5G10 VHH-Fc (antibody, human IgG1, V domains shown)
VH: B2 VH with I56A
B9: Humanized 10A4 GLEF-N2S VHH-Fc (antibody, human IgG1, V domains shown)
VH: B2 VH with Q1E, V11L, R16G, F37V, E44G, R45L, F111Y, D112H
B10: 3D5 VHH-Fc (antibody, human IgG1, V domains shown)
VH: B2 VH with I56H, V103S
B11: 1G12 VHH-Fc (antibody, human IgG1, V domains shown)
VH: B2 VH with I56L, E110N

Legend:
Assay in all cases: cell-based or functional assay
[1] = molecular target: T1, human PDL1 stably expressed on CHO cells (human, UniProt Q9NZQ7 19-290)
T1 sequence (Q9NZQ7 19-290 limits assumed): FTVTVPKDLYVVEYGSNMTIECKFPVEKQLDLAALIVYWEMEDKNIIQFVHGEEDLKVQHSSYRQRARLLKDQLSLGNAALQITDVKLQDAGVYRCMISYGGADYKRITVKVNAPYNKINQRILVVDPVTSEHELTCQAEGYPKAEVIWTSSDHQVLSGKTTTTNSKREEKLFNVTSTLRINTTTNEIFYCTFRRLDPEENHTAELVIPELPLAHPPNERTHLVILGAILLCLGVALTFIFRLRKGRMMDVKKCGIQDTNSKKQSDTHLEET

[2] = molecular target: T1, human PDL1 stably expressed on CHO cells; remark: listed apart in the source
[3] = molecular target: T1, human PDL1 stably expressed on CHO cells; remark: listed apart in the source
[4] = molecular target: T1, human PDL1 stably expressed on CHO cells; remark: listed apart in the source

Binder	EC50 (read off the curve); luminescence (RLU) of the NFAT reporter, PDL1 Blockade assay (CHO-PDL1) [middle panel] [3]	EC50 (read off the curve); luminescence (RLU) of the NFAT reporter, PDL1 Blockade assay (CHO-PDL1) [top panel] [3]	further results
B1	~1 nM	–	EC50; NFAT luciferase reporter (RLU), whole cell PDL1/PD1 blocking assay; printed as 10A4 Parental [1]: 3.79 nM; EC50; NFAT luciferase reporter (RLU), CHO cells with human PDL1 co-incubated with Jurkat cells with human PD1 and NFAT reporter, blocking of PDL1/PD1 [2]: 0.242 nM
B2	–	~2 nM	–
B3	~2 nM	–	–
B4	–	–	EC50; NFAT luciferase reporter (RLU), whole cell PDL1/PD1 blocking assay [1]: 8.3 nM
B5	–	~2 nM	–
B6	–	~2 nM	–
B7	–	~2 nM	–
B8	~2 nM	–	–
B9	–	–	EC50; NFAT luciferase reporter (RLU), whole cell PDL1/PD1 blocking assay [1]: 7.37 nM; EC50 (read off the curve); luminescence (RLU) of the NFAT reporter, PDL1 Blockade assay (CHO-PDL1) [bottom panel] [3]: ~2 nM; EC50; NFAT luciferase reporter (RLU), whole cell PDL1/PD1 blocking assay; printed as 10A4 GLEF-N2S [4]: 0.824 nM
B10	~1 nM	–	–
B11	~1 nM	–	–
